The values that follow come from patent US9205136B2, “Human aminoacyl-tRNA synthetase polypeptides useful for the regulation of angiogenesis” (THE SCRIPPS RESEARCH INSTITUTE, priority 2000, dated 2015).

Assay [1] has as its system HUVEC. As to the kind of experiment: Inhibition of VEGF165-induced cell proliferation. It is filed as cell-based, human. As to conditions: 2 μM TrpRS, 2 nM VEGF165, 72 hours. As to the method:
The angiostatic activity of TrpRS was first evaluated in experiments testing the ability of human full-length TrpRS and human mini TrpRS to inhibit human VEGF165-induced cell proliferation. Tissue culture-treated 96-well plates (Corning Costar Corp., Cambridge, Mass.) were coated with 0.1% gelatin (Sigma) overnight. Cells were then seeded in the gelatinized plates at a density of 5×10^3 cells per well in DMEM medium (Gibco-BRL) containing heat-inactivated fetal bovine serum (FBS) (10%, Sigma) and penicillin/streptomycin (100 units/mL-100 μg/mL, Sigma). The following day, the cells were treated with 2 μM of a given TrpRS in the presence of 2 nM VEGF165. After 72 hours of incubation, assays were performed by using the […] 96® aqueous one-solution cell proliferation assay kit (Promega, Madison, Wis.). Results of the inhibition assay are shown in FIG. 18 as the percentage of net proliferation of VEGF165. Each determination shown represents the mean of five experiments.

For assay [2], the system named is HUVEC. The assay can be described thus: Inhibition of VEGF165-induced or mini TyrRS-induced HUVEC migration. The class given is cell-based, human. As to conditions: for inhibition of HUVEC migration: as described in Example 14, inducer not stated; for inhibition of VEGF165-induced HUVEC chemotaxis / inhibition of mini TyrRS-induced HUVEC chemotaxis: 500 nM TrpRS; for inhibition of VEGF165-induced HUVEC chemotaxis: 0.5 nM VEGF165; for inhibition of mini TyrRS-induced HUVEC chemotaxis: 50 nM mini TyrRS. As to the method: Cell migration assays were performed using the modified Boyden chamber (6.5 mm Transwells) with polycarbonate membranes (8.0 μm pore size) (Costar Corp., Cambridge, Mass.) (Masood et al., 1999, Blood 93:1038-44). Wells were coated overnight with 25 μg/mL human fibronectin (Biosource International, Camarillo, Calif.) in PBS and then allowed to air-dry. HUVECs were suspended in Dulbecco's modified Eagle's medium (DMEM) (Gibco-BRL, Gaithersburg, Md.) containing 0.1% BSA (Sigma) and 2×10^5 cells per well were added to the upper chamber. The chemotactic stimulus (50 nM of a given TyrRS molecule or 0.5 nM of human vascular endothelial growth factor-165 (VEGF165) (Biosource International, Camarillo, Calif.)) was placed in the lower chamber, and the cells were allowed to migrate for 6 hours at 37° C. in a 6% CO2 incubator. After incubation, non-migrant cells were removed from the upper face of the Transwell membrane with a cotton swab and migrant cells, those attached to the lower face, were fixed in methanol and visualized with the HEMACOLOR® stain set (EM Diagnostic Systems, Gibbstown, N.J.). Migrating cells were counted in high-power fields (HPFs). HUVECs were suspended in media with the inhibitor for 30 minutes before placement in the chamber. Each determination shown in FIG. 16 represents the average of nine HPF measurements.
The angiostatic activity of TrpRS was next evaluated in experiments testing the ability of human full-length TrpRS and human mini TrpRS to inhibit human VEGF165-induced or human mini TyrRS-induced cell migration. Cell migration assays were performed as described in Example 11 with full-length TrpRS or mini TrpRS added to VEGF165-induced or mini TyrRS-induced HUVEC samples. HUVEC samples were treated with 0.5 nM VEGF165, 50 nM mini TyrRS, and 500 nM of a given TrpRS. Four measurements of chemotaxis were done for each protein. Each determination shown in FIG. 19 represents the average of nine HPF measurements. […] In contrast, human full-length TrpRS had no effect on VEGF165-induced or mini TyrRS-induced HUVEC chemotaxis.

The test system of a further assay is chick CAM. The assay can be described thus: Inhibition of VEGF165-induced or mini TyrRS-induced angiogenesis in chick CAM. The class given is in vivo. As to conditions: 3 μg inhibitor; for inhibition of VEGF165-induced angiogenesis in chick CAM: 25 ng VEGF165, 72 hours; for inhibition of mini TyrRS-induced angiogenesis in chick CAM: 250 ng mini TyrRS, 72 hours. As to the method: In vivo angiogenesis assays were conducted in chick chorioallantoic membrane (CAM) (Nicolaou et al., 1998, Bioorg. Med. Chem. 6:1185-208). Ten-day-old chick embryos were purchased from Mcintyre Poultry (Lakeside, Calif.) and were incubated at 37° C. and 70% humidity. A small hole was made with a small crafts drill (Dremel, Emerson Electric, Racine, Wis.) directly over the air sac at the end of the egg. The embryos were candled to determine a location to drill a second hole directly over embryonic blood vessels. […] A window was cut in the eggshell over the dropped CAM, exposing the CAM to direct access for experimental manipulation. Cortisone acetate-treated 5 mm filter disks were soaked with a particular protein sample (25 ng of VEGF165 or 250 ng of a given TyrRS molecule) and the filter disks added directly to the CAMs, which were relatively devoid of preexisting blood vessels. The windows were sealed with sterile tape and incubated at 37° C. At 0, 24, and 48 hours following incubation, 3 μg of […] (IP-10) (R & D Systems, Minneapolis, Minn.) was topically applied to the filter disks. After 72 hours, the CAM tissue associated with the filter disk was harvested and quantified using a stereomicroscope. Angiogenesis was assessed as the number of visible blood vessel branch points within the defined area of the filter disks. Each determination shown in FIG. 17 represents the mean from 5-8 embryos.
The angiostatic activity of human full-length TrpRS and human mini TrpRS was also analyzed in in vivo angiogenesis assays conducted in chick CAM. In vivo angiogenesis assays were performed as described in Example 12 with 3 μg of full-length TrpRS or mini TrpRS added to VEGF165-induced or mini TyrRS-induced CAM tissue.

B1: supermini TrpRS: residues 71-471 of full-length TrpRS, major PMN elastase fragment (protein)
chain: MSNHGPDATEAEEDFVDPWTVQTSSAKGIDYDKLIVRFGSSKIDKELINRIERATGQRPHHFLRRGIFFSHRDMNQVLDAYENKKPFYLYTGRGPSSEAMHVGHLIPFIFTKWLQDVFNVPLVIQMTDDEKYLWKDLTLDQAYGDAVENAKDIIACGFDINKTFIFSDLDYMGMSSGFYKNVVKIQKHVTFNQVKGIFGFTDSDCIGKISFPAIQAAPSFSNSFPQIFRDRTDIQCLIPCAIDQDPYFRMTRDVAPRIGYPKPALLHSTFFPALQGAQTKMSASDPNSSIFLTDTAKQIKTKVNKHAFSGGRDTIEEHRQFGGNCDVDVSFMYLTFFLEDDDKLEQIRKDYTSGAMLTGELKKALIEVLQPLIAEHQARRKEVTDEIVKEFMTPRKLSFDFQKLAAALEHHHHHH
modifications: His6 tag; Human supermini TrpRS in pET20B
notes: residues 71-471 of full-length TrpRS, major PMN elastase fragment
B1: in the assay with HUVEC [1], the “inhibition of VEGF165-induced cell proliferation” value is “capable of inhibiting HUVEC proliferation and migration”. The “inhibition of HUVEC migration” value in the assay with HUVEC [2] is “capable of inhibiting HUVEC proliferation and migration”. Further, in the assay on chick CAM, the “inhibition of VEGF165-induced angiogenesis in chick CAM” value is given as “capable of inhibiting” and the “inhibition of mini TyrRS-induced angiogenesis in chick CAM” value is “capable of inhibiting”.

B2: mini TrpRS: truncated TrpRS, residues 48-471 of full-length TrpRS (protein)
chain: MSYKAAAGEDYKADCPPGNPAPTSNHGPDATEAEEDFVDPWTVQTSSAKGIDYDKLIVRFGSSKIDKELINRIERATGQRPHHFLRRGIFFSHRDMNQVLDAYENKKPFYLYTGRGPSSEAMHVGHLIPFIFTKWLQDVFNVPLVIQMTDDEKYLWKDLTLDQAYGDAVENAKDIIACGFDINKTFIFSDLDYMGMSSGFYKNVVKIQKHVTFNQVKGIFGFTDSDCIGKISFPAIQAAPSFSNSFPQIFRDRTDIQCLIPCAIDQDPYFRMTRDVAPRIGYPKPALLHSTFFPALQGAQTKMSASDPNSSIFLTDTAKQIKTKVNKHAFSGGRDTIEEHRQFGGNCDVDVSFMYLTFFLEDDDKLEQIRKDYTSGAMLTGELKKALIEVLQPLIAEHQARRKEVTDEIVKEFMTPRKLSFDFQKLAAALEHHHHHH
modifications: His6 tag; Human mini TrpRS in pET20B
notes: truncated TrpRS, residues 48-471 of full-length TrpRS
For B2, the “inhibition of VEGF165-induced cell proliferation” value with HUVEC [1] is on record as “able to inhibit human VEGF165-induced cell proliferation”. In the assay on HUVEC [2], the “inhibition of VEGF165-induced HUVEC chemotaxis” value is given as “inhibited” and the “inhibition of mini TyrRS-induced HUVEC chemotaxis” value is “inhibited”. In the assay with chick CAM, the “inhibition of VEGF165-induced angiogenesis in chick CAM” value is on record as “inhibited” and the “inhibition of mini TyrRS-induced angiogenesis in chick CAM” value is on record as “inhibited”.

B3: inactive TrpRS: minor PMN elastase fragment of TrpRS, amino-terminal residue at position 94 of full-length TrpRS (protein)
chain: MSAKGIDYDKLIVRFGSSKIDKELINRIERATGQRPHHFLRRGIFFSHRDMNQVLDAYENKKPFYLYTGRGPSSEAMHVGHLIPFIFTKWLQDVFNVPLVIQMTDDEKYLWKDLTLDQAYGDAVENAKDIIACGFDINKTFIFSDLDYMGMSSGFYKNVVKIQKHVTFNQVKGIFGFTDSDCIGKISFPAIQAAPSFSNSFPQIFRDRTDIQCLIPCAIDQDPYFRMTRDVAPRIGYPKPALLHSTFFPALQGAQTKMSASDPNSSIFLTDTAKQIKTKVNKHAFSGGRDTIEEHRQFGGNCDVDVSFMYLTFFLEDDDKLEQIRKDYTSGAMLTGELKKALIEVLQPLIAEHQARRKEVTDEIVKEFMTPRKLSFDFQKLAAALEHHHHHH
modifications: His6 tag; Human inactive TrpRS in pET20B
notes: minor PMN elastase fragment of TrpRS, amino-terminal residue at position 94 of full-length TrpRS
On to B3, for which the “inhibition of VEGF165-induced cell proliferation” value with HUVEC [1] was “did not exhibit angiostatic activity”. Further, in the assay with HUVEC [2], the “inhibition of HUVEC migration” value is “did not exhibit angiostatic activity”. In the assay with chick CAM, the “inhibition of VEGF165-induced angiogenesis in chick CAM” value was “did not exhibit angiostatic activity” and the “inhibition of mini TyrRS-induced angiogenesis in chick CAM” value was “did not exhibit angiostatic activity”.

B4: full-length TrpRS: recombinant human tryptophanyl-tRNA synthetase, 471 amino acid residues (protein)
chain: MPNSEPASLLELFNSIATQGELVRSLKAGNASKDEIDSAVKMLVSLKMSYKAAAGEDYKADCPPGNPAPTSNHGPDATEAEEDFVDPWTVQTSSAKGIDYDKLIVRFGSSKIDKELINRIERATGQRPHHFLRRGIFFSHRDMNQVLDAYENKKPFYLYTGRGPSSEAMHVGHLIPFIFTKWLQDVFNVPLVIQMTDDEKYLWKDLTLDQAYGDAVENAKDIIACGFDINKTFIFSDLDYMGMSSGFYKNVVKIQKHVTFNQVKGIFGFTDSDCIGKISFPAIQAAPSFSNSFPQIFRDRTDIQCLIPCAIDQDPYFRMTRDVAPRIGYPKPALLHSTFFPALQGAQTKMSASDPNSSIFLTDTAKQIKTKVNKHAFSGGRDTIEEHRQFGGNCDVDVSFMYLTFFLEDDDKLEQIRKDYTSGAMLTGELKKALIEVLQPLIAEHQARRKEVTDEIVKEFMTPRKLSFDFQKLAAALEHHHHHH
modifications: His6 tag; Human full-length TrpRS in pET20B
notes: recombinant human tryptophanyl-tRNA synthetase, 471 amino acid residues
For B4, in the assay on HUVEC [1], the “inhibition of VEGF165-induced cell proliferation” value was “exhibited no angiostatic activity”. In addition, in the assay with HUVEC [2], the “inhibition of VEGF165-induced HUVEC chemotaxis” value is “had no effect” and the “inhibition of mini TyrRS-induced HUVEC chemotaxis” value was “had no effect”. In addition, in the assay with chick CAM, the “inhibition of VEGF165-induced angiogenesis in chick CAM” value is given as “no observable angiostatic activity” and the “inhibition of mini TyrRS-induced angiogenesis in chick CAM” value is reported as “no observable angiostatic activity”.
